Values joined by “and” are separate entries in the source; they are usually repeats but may differ in a detail not shown here. Identical values can stand only once.
What was measured:
[1] = molecular target: SARS-CoV-2 spike on Omicron pseudovirus (GFP-expressing) (SARS-CoV-2 Omicron) (UniProt P0DTC2); assay: flow cytometry, bead-bound aptamer
[2] = molecular target: SARS-CoV-2 spike on Omicron pseudovirus (GFP-expressing) (SARS-CoV-2 Omicron) (UniProt P0DTC2); assay: flow cytometry, bead-bound aptamer; conditions: 5' hexynyl-iSp18-iSp18-iSp18 (PEG spacer)

Sequence	Kd ([1]; 5' hexynyl-iSp18-iSp18-iSp18 (PEG spacer)) [pM]	Kd [2]	Kd ([1]; 5' hexynyl) [pM]
ATCCAGAGTGACGCAGCACCGACCTTGTGCTTTGGGAGTGCTGGTCCAAGGGCGTTAATGGACACGGTGGCTTAGT [Omicron PEG36 Particle Aptamer]	0.007	0.011 pM and 0.017 pM and 0.073 pM	–
TTTTTATCCAGAGTGACGCAGCACCGACCTTGTGCTTTGGGAGTGCTGGTCCAAGGGCGTTAATGGACACGGTGGCTTAGT [Omicron Particle Aptamer]	–	–	0.01
